# Measured values taken from patent US20190359683A1 (published 2019).
# Like-named read-outs stand apart in the source and are kept apart here.
# T1: recombinant human cardiotrophin-like cytokine factor 1 (CLCF1) (human, UniProt Q9UBD9 28-225)
# T1 chain: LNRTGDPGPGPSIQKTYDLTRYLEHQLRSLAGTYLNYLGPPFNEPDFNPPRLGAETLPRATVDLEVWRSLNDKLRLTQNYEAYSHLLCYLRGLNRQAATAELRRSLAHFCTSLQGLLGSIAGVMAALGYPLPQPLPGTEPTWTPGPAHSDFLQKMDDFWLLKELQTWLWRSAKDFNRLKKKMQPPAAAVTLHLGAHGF
# B1: eCNTFR-Fc (soluble engineered CNTFR fused to mouse IgG2a Fc) (Fc fusion)
# chain: QRHSPQEAPHVQYERLGSDVTLPCGTANWDAAVTWRVNGTDLAPDLLNGSQLVLHGLELGHSGLYACFHRDSWHLRHQVLLHVGLPPQEPVLSCRSNTYPKGFYCSWHLPTPTYIPNTFNVTVLHGSKIMVCEKDPALKNRCHIRYMHLFSPIKHNVSISVSNALGHNATAITFDEFTIVKPDPPENVVARPVPSNPRRLEVTWQTPSTWPDPEFFPLKFFLRYRPLILDQWQHVELSDGTAHTIAAAYAGKEYIIQVAAKDNEFGTWSDWSVAAHATPWTEEPRHLTTEAQAAETTTSTTSSLAPPPTTKICDPGELGSRRLEPRGPTIKPCPPCKCPAPNLLGGPSVFIFPPKIKDVLMISLSPIVTCVVVDVSEDDPDVQISWFVNNVEVHTAQTQTHREDYNSTLRVVSALPIQHQDWMSGKEFKCKVNNKDLPAPIERTISKPKGSVRAPQVYVLPPPEEEMTKKQVTLTCMVTDFMPEDIYVEWTNNGKTELNYKNTEPVLDSDGSYFMYSKLRVEKKNWVERNSYSCSVVHEGLHNHHTTKSFSRTPGK
# B2: CLCF1 (ligand)
# chain: T1 chain
# B3: eCNTFR-HIS (soluble engineered CNTFR with His-tag) (receptor)
# chain: QRHSPQEAPHVQYERLGSDVTLPCGTANWDAAVTWRVNGTDLAPDLLNGSQLVLHGLELGHSGLYACFHRDSWHLRHQVLLHVGLPPQEPVLSCRSNTYPKGFYCSWHLPTPTYIPNTFNVTVLHGSKIMVCEKDPALKNRCHIRYMHLFSPIKHNVSISVSNALGHNATAITFDEFTIVKPDPPENVVARPVPSNPRRLEVTWQTPSTWPDPEFFPLKFFLRYRPLILDQWQHVELSDGTAHTIAAAYAGKEYIIQVAAKDNEFGTWSDWSVAAHATPWTEEPRHLTTEAQAAETTTSTTSSLAPPPTTKICDPGELGS
# B4: yeast-displayed CNTFR variant 4 (R110Q, T174P, S237F, I287F) (protein)
# chain: VYAQRHSPQEAPHVQYERLGSDVTLPCGTANWDAAVTWRVNGTDLAPDLLNGSQLVLHGLELGHSGLYACFHRDSWHLRHQVLLHVGLPPQEPVLSCRSNTYPKGFYCSWHLPTPTYIPNTFNVTVLHGSKIMVCEKDPALKNRCHIRYMHLFSPIKYKVSISVSNALGHNATAITFDEFTIVKPDPPENVVARPVPSNPRRLEVTWQTPSTWPDPEFFPLKFFLRYRPLILDQWQHVELSDGTAHTITDAYAGKEYIIQVAAKDNEFGTWSDWSVAAHATPWTEEPRHLTTEAQAAETTTSTTSSLAPPPTTKICDPGELGS
# Columns and labels:
# [1] = target: T1, recombinant human cardiotrophin-like …; experiment: ELISA
# [2] = target: 5; experiment: yeast display binding; apparent Kd
# [3] = target: 1; experiment: yeast display binding; apparent Kd
# [4] = target: 3; experiment: yeast display binding; apparent Kd
# [5] = target: 2; experiment: yeast display binding; apparent Kd
# [6] = target: T1, recombinant human cardiotrophin-like …
# [7] = target: T1, recombinant human cardiotrophin-like …
binder,measurement,setting,value
B1,Kd,[1],0.063 nM
B2,Kd,[2],740 nM
same,Kd,[3],4100 nM
same,Kd,[4],49 nM
same,Kd,[5],890 nM
B3,Kd,[1],0.075 nM
B4,Kd,[6],19 nM
same,Kd,[7],0.019 nM
